Assay results as given in paper PMC10146092, “Highly Sensitive β-Lactoglobulin Fluorescent Aptamer Biosensors Based on Tungsten Disulfide Nanosheets and DNase I-Assisted Signal Amplification”.

T1: beta-lactoglobulin (β-Lg) (Bos taurus (cow's milk)?, UniProt P02754 17-178)
T1 sequence: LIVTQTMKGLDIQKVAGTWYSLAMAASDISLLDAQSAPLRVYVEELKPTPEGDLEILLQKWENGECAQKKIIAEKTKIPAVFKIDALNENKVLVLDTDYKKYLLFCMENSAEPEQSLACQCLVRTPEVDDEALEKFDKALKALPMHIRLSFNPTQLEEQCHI

B1: β-Lg aptamer (ssDNA)
DNA: CGACGATCGGACCGCAGTACCCACAGCCCCAACATCATGCCCATCCGTGTGTG
B2: negative control DNA sequence (ssDNA)
DNA: CTAAGTCTGAAACATTACAGCTTGCTACACGAGAAGAGCCGCACGAGAACCCT

Assays:
ovalbumin = ovalbumin (UniProt P01012 2-386); test: fluorescence recovery on WS2 nanosheets; 10 ug/mL protein; no significant recovery; 200 nM FAM-aptamer, 750 ug/mL WS2 (10 min, room temperature), then β-Lg with 0.04 U/uL DNase I, 40 min at 37 °C; ex 490/em 518 nm; buffer, salt and pH not given in the material; settings: protein: commercial; label: 5'-FAM
[1] = target: T1, beta-lactoglobulin (β-Lg); test: fluorescence recovery on WS2 nanosheets (FRET quenching); no DNase I; WS2 nanosheets; LOD 35 ng/mL; 200 nM FAM-aptamer, 750 ug/mL WS2 (10 min, room temperature), then β-Lg with 0.04 U/uL DNase I, 40 min at 37 °C; ex 490/em 518 nm; buffer, salt and pH not given in the material; settings: protein: commercial; chain copies: 2; label: 5'-FAM
[2] = target: T1, beta-lactoglobulin (β-Lg); test: fluorescence recovery on WS2 nanosheets, DNase I amplified; DNase I; β-Lg 0.1-100 ug/mL; little fluorescence change, independent of β-Lg; 200 nM FAM-aptamer, 750 ug/mL WS2 (10 min, room temperature), then β-Lg with 0.04 U/uL DNase I, 40 min at 37 °C; ex 490/em 518 nm; buffer, salt and pH not given in the material; settings: protein: commercial; chain copies: 2; label: 5'-FAM

Chain of ovalbumin (P01012 2-386): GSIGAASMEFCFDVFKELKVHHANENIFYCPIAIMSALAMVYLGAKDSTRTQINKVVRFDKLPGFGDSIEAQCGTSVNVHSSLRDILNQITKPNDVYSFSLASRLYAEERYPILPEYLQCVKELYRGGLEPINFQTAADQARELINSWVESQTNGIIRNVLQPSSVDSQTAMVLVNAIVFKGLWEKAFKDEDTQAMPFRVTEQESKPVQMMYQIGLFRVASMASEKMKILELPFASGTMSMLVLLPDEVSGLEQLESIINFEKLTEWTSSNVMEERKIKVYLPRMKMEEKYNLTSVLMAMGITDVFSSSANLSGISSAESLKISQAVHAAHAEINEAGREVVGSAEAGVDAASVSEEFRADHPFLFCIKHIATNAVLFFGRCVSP

Binder | binding result (ovalbumin) | binding result [1] | binding result [2]
B1 | no binding | binds | –
B2 | – | – | no binding
